The values that follow come from US20050003420, “Recycled mutagenesis of restriction endonuclease toward enhanced catalytic activity” (published 2005).

Residue numbers refer to the chain shown, from its start.

The target in data set [1] is T1, BsoBI restriction endonuclease (UniProt P70985 P70985:1-323).
T1 sequence: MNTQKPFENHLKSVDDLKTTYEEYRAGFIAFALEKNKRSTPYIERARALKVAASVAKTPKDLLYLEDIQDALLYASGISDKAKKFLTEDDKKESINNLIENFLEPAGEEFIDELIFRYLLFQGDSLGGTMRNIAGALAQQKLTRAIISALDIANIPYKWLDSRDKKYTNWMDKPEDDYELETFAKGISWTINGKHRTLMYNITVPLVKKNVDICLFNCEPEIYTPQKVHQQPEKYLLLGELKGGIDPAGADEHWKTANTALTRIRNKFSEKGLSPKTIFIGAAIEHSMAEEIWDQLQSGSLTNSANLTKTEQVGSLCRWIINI
The data set can be described thus: filter; 4 mM CaCl2, 100 mM NaCl, pH 7.5, room temp; ±2.0. To be noted: tags: untagged, expressed from pRRS-bsoBIR in E. coli ER2683; chain copies: 2 inferred; label: 33P 5' end. Here is the method:
(§1) The binding condition was in 10 mM Tris-HCl, pH 7.5, 100 mM NaCl, 50 mg/ml BSA, 4 mM CaCl₂ in […] volume. The labeled DNA substrates were diluted to a final scintillation count of 1000-5000 cpm and varying amount of BsoBI or each variant was added. Following incubation at room temperature for 10 min, the bound complex was loaded onto Micropure EZ column (Millipore Corporation, Bedford, Mass.) and spun at 16K g for 1 min. Protein and protein:DNA complexes are bound to the membrane in the Micropure EZ column and only the free unbound DNA is in the flow-through fraction. 180 μl of the flow-through liquid was immediately transferred to scintillation counting vials filled with 1.5 ml OPTI-FLUOR for aqueous samples (Packard, Meriden, Conn.). The radioactivity count from the sample without BsoBI is F₀, and the radioactivity count from sample with BsoBI or each variant is F. The apparent Kd value is calculated from F/F₀ and the BsoBI concentration [E] according to equation [1]. F/F₀=a [Kd/([E]+Kd)]+b a and b are equation fitting parameters, where b is the non-specific flow-through, and a is the maximum change amplitude.
(§2) DNA binding properties of BsoBI endonuclease and variants: To obtain reproducible BsoBI:DNA binding data, a filter binding assay utilizing a microcentrifuge filter was developed. […]

The target of data set [2] is T2, BsoBI D246R (UniProt P70985 P70985:1-323, D246R).
T2 sequence: T1 sequence with D246R
The data set can be described thus: filter; 4 mM CaCl2; ±20. To be noted: chain copies: 2 inferred; label: 33P 5' end. The procedure:
as §1, §2

Data set [3] has as its target T3, BsoBI D246E (UniProt P70985 P70985:1-323, D246E).
T3 sequence: T1 sequence with D246E
The data set can be described thus: filter; 4 mM CaCl2; ±20000. The note with it: chain copies: 2 inferred; label: 33P 5' end. Here is the method: as §1, §2

For data set [4], the target named is T4, BsoBI D246A (UniProt P70985 P70985:1-323, D246A).
T4 sequence: T1 sequence with D246A
Kind of data set: filter; 4 mM CaCl2; ±40. The note with it: chain copies: 2 inferred; label: 33P 5' end. The procedure: as §1, §2

Data set [5] deals with T5, BsoBI D246Y (UniProt P70985 P70985:1-323, D246Y).
T5 sequence: T1 sequence with D246Y
Kind of data set: filter; 4 mM CaCl2; ±16. To be noted: chain copies: 2 inferred; label: 33P 5' end. The procedure:
as §1, §2

Data set [6] concerns the target T6, BsoBI D246C (UniProt P70985 P70985:1-323, D246C).
T6 sequence: T1 sequence with D246C
Kind of data set: filter; 4 mM CaCl2; ±11. The note with it: chain copies: 2 inferred; label: 33P 5' end. The procedure:
as §1, §2

Data set [7] concerns the target T2, BsoBI D246R. Kind of data set: filter; 4 mM CaCl2; ±3.5. To be noted: chain copies: 2 inferred; label: 33P 5' end. Here is the method:
as §1, §2

Data set [8] concerns the target T3, BsoBI D246E. The data set can be described thus: filter; 4 mM CaCl2; ±683. To be noted: chain copies: 2 inferred; label: 33P 5' end. Here is the method: as §1, §2
The target of data set [9] is T6, BsoBI D246C. Kind of data set: filter; 4 mM CaCl2; ±4. The note with it: chain copies: 2 inferred; label: 33P 5' end. The procedure: as §1
(§3) DNA binding properties of BsoBI endonuclease and variants: To obtain reproducible BsoBI:DNA binding data, a filter binding assay utilizing a microcentrifuge filter was developed. In the control experiment, more than 99% of the wt BsoBI endonuclease was retained on the filter of the spin column. When labeled duplex DNA was loaded onto the membrane in the absence of protein, more than 95% of the DNA passed through the column. […] The heat-treatment step removed approximately 80% of E. coli proteins. The filter-binding assay was performed for wt BsoBI endonuclease and variants D246A, D246C, D246E, D246R, and D246Y in the presence of Ca⁺⁺. The inclusion of Ca⁺⁺ in the binding buffer stabilizes the protein:DNA complex in DNA mobility shift assays (data not shown) and it was presumed that Ca⁺⁺ does the same in the filter binding assay.

Data set [10] deals with T4, BsoBI D246A. Kind of data set: filter; 4 mM CaCl2; ±0.6. To be noted: chain copies: 2 inferred; label: 33P 5' end. Here is the method:
as §1, §2

The target in data set [11] is T1, BsoBI restriction endonuclease. Kind of data set: filter; 4 mM CaCl2, 100 mM NaCl, pH 7.5, room temp; ±1.2. The note with it: tags: untagged, expressed from pRRS-bsoBIR in E. coli ER2683; chain copies: 2 inferred; label: 33P 5' end. The procedure:
as §1, §2

Data set [12] has as its target T5, BsoBI D246Y. Kind of data set: filter; 4 mM CaCl2; ±2. The note with it: chain copies: 2 inferred; label: 33P 5' end. The procedure:
as §1, §2

Data set [13] deals with T6, BsoBI D246C. The data set can be described thus: filter; 4 mM CaCl2; ±9.8. To be noted: chain copies: 2 inferred; label: 33P 5' end. The procedure: as §1, §2
For data set [14], the target named is T4, BsoBI D246A. Kind of data set: filter; 4 mM CaCl2; ±4. To be noted: chain copies: 2 inferred; label: 33P 5' end. Here is the method:
as §1, §3

Data set [15] deals with T5, BsoBI D246Y. Kind of data set: filter; 4 mM CaCl2; ±4. To be noted: chain copies: 2 inferred; label: 33P 5' end. Here is the method: as §1, §3
For data set [16], the target named is T1, BsoBI restriction endonuclease. The data set can be described thus: filter; 4 mM CaCl2, 100 mM NaCl, pH 7.5, room temp; ±0.9. The note with it: tags: untagged, expressed from pRRS-bsoBIR in E. coli ER2683; chain copies: 2 inferred; label: 33P 5' end. Here is the method:
as §1, §2

In data set [17] the target is T3, BsoBI D246E. The data set can be described thus: filter; 4 mM CaCl2; ±1578. To be noted: chain copies: 2 inferred; label: 33P 5' end. Here is the method:
as §1, §2

In data set [18] the target is T2, BsoBI D246R. Kind of data set: filter; 4 mM CaCl2; ±4.6. The note with it: chain copies: 2 inferred; label: 33P 5' end. The procedure: as §1, §2
Data set [19] deals with T4, BsoBI D246A. Kind of data set: filter; 4 mM CaCl2; ±97. To be noted: chain copies: 2 inferred; label: 33P 5' end. Here is the method: as §1, §2
In data set [20] the target is T5, BsoBI D246Y. The data set can be described thus: filter; 4 mM CaCl2; ±67. The note with it: chain copies: 2 inferred; label: 33P 5' end. Here is the method:
as §1, §2

Data set [21] concerns the target T3, BsoBI D246E. Kind of data set: filter; 4 mM CaCl2; ±3347. The note with it: chain copies: 2 inferred; label: 33P 5' end. The procedure: as §1, §2
Data set [22] has as its target T6, BsoBI D246C. The data set can be described thus: filter; 4 mM CaCl2; ±10. The note with it: chain copies: 2 inferred; label: 33P 5' end. The procedure:
as §1, §2

In data set [23] the target is T1, BsoBI restriction endonuclease. The data set can be described thus: filter; 4 mM CaCl2, non-specific control; ±143. The note with it: tags: untagged, expressed from pRRS-bsoBIR in E. coli ER2683; chain copies: 2 inferred; label: 33P 5' end. The procedure:
as §1, §2

For data set [24], the target named is T2, BsoBI D246R. Kind of data set: filter; 4 mM CaCl2; ±4.9; increased non-specific binding. The note with it: chain copies: 2 inferred; label: 33P 5' end. The procedure: as §1, §2

B1: S1 (CTCGAG) (dsDNA)
DNA 1: GAGTGTTATGGGTAGCTCGAGTGAAGTGGGAATATC
DNA 2: GATATTCCCACTTCACTCGAGCTACCCATAACACTC
As to B1, the Kd – broadly, the equilibrium constant for the complex coming apart – in data set [1] worked out at 0.0092 nM; in the data set with BsoBI D246R [2] it was 0.089 nM; with BsoBI D246E [3], 80 nM; with BsoBI D246A [4], 0.219 nM; in the data set with BsoBI D246Y [5], 0.132 nM; in the data set with BsoBI D246C [6], 0.074 nM.

B2: S2 (CCCGGG) (dsDNA)
DNA 1: B1 DNA 1 with T17C, A20G
DNA 2: B1 DNA 2 with T17C, A20G
With B2, the Kd with BsoBI D246R [7] was found to be 0.038 nM; with BsoBI D246E [8], 2.84 nM; with BsoBI D246C [9] it was 0.03 nM; with BsoBI D246A [10], 0.0031 nM; in data set [11] it was 0.0066 nM; with BsoBI D246Y [12], 0.041 nM.

B3: S3 (CTCGGG/CCCGAG) (dsDNA)
DNA 1: B1 DNA 1 with A20G
DNA 2: B1 DNA 2 with T17C
As to B3, the Kd is 0.064 nM with BsoBI D246C [13]; 0.017 nM in the data set with BsoBI D246A [14]; 0.057 nM with BsoBI D246Y [15]; 0.0053 nM in data set [16]; 42.1 nM with BsoBI D246E [17]; 0.039 nM with BsoBI D246R [18].

B4: N (CATAAC, non-specific) (dsDNA)
DNA 1: B1 DNA 1 with T17A, C18T, G19A, G21C
DNA 2: B1 DNA 2 with C16G, C18T, G19A, A20T
For B4, the Kd in the data set with BsoBI D246A [19] was found to be 0.578 nM; in the data set with BsoBI D246Y [20], 0.449 nM; with BsoBI D246E [21] it was 93.2 nM; in the data set with BsoBI D246C [22], 0.142 nM; in data set [23] it was 1.45 nM; with BsoBI D246R [24], 0.064 nM.
